Starred links: 1 amine or outer side, 2 acyl side, 3 side chain; linkers in the order of their positions; H or OH if unused. Non-standard residues stand in square brackets, D forms with d. Groups on a side chain read outwards from the residue. Primed or numbered codes have the meaning given here. No end group written: not given here. *: point of attachment. γGlu = O=C(O)[C@H](CCC(=O)[*:2])N[*:1]; Stearoyl = CCCCCCCCCCCCCCCCCC(=O)*; αMeF = C[C@](N)(Cc1ccccc1)C(=O)O; Myristoyl = CCCCCCCCCCCCCC(=O)*; αMeK = C[C@](N)(CCCCN)C(=O)O; Lauroyl = CCCCCCCCCCCC(=O)*; αMeS = C[C@](N)(CO)C(=O)O; Nle = CCCC[C@H](N)C(=O)O; PEG2′ = not defined here; Aib = CC(C)(N)C(=O)O
T1: glucose-dependent insulinotropic peptide (gastric inhibitory polypeptide) receptor (GIPR), primary cAMP assay (human, UniProt P48546 22-466)
T1 sequence (looked up): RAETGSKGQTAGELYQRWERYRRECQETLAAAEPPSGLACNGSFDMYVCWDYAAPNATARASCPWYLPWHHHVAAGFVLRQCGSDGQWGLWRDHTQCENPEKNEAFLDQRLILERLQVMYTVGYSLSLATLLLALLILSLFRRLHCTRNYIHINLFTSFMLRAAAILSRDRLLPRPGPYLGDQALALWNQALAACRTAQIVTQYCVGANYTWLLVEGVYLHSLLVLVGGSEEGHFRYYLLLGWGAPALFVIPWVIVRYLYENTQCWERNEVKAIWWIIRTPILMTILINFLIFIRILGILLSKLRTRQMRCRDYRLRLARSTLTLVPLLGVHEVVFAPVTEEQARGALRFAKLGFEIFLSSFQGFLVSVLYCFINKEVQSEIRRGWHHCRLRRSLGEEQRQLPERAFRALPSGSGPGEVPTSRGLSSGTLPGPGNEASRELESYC

T2: GLP-1R in the INS1e assay (UniProt P32301 22-463, limits assumed)
T2 sequence (looked up): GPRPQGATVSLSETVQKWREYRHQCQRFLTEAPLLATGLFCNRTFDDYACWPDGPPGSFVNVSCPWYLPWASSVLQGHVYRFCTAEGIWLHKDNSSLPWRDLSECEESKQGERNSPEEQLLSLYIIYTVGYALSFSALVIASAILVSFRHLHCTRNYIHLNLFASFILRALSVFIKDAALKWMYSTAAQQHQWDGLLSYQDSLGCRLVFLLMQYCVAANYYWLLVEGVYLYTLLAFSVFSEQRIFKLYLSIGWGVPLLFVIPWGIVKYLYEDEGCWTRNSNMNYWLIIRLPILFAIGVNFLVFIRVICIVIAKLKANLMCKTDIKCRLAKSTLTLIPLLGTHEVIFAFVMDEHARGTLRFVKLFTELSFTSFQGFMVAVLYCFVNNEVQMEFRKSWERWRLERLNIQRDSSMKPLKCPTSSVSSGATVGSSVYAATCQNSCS

B1: SEQ ID NO: 410 (peptide)
peptide: H[Aib]EGS[αMeF]TSDV[αMeS]SK([PEG2′-PEG2′-γGlu-Stearoyl])LEGEAA[αMeK]E[αMeF]IAK([PEG2′-PEG2′-γGlu-Stearoyl])VVEGG-NH2
B2: SEQ ID NO: 405 (peptide)
peptide: H[Aib]EGS[αMeF]TSDV[αMeS]SK([PEG2′-PEG2′-γGlu-Lauroyl])LEGEAA[αMeK]E[αMeF]IAK([PEG2′-PEG2′-γGlu-Lauroyl])VVEGG-NH2
B3: SEQ ID NO: 269 (peptide)
peptide: H[Aib]EGS[αMeF]TSDV[αMeS]SYK([PEG2′-PEG2′-γGlu-Lauroyl])EGEAA[αMeK]EFIAK([PEG2′-PEG2′-γGlu-Lauroyl])VVEGG-NH2
B4: SEQ ID NO: 407 (peptide)
peptide: H[Aib]EGS[αMeF]TSDV[αMeS]SK([PEG2′-PEG2′-γGlu-Lauroyl])LEGEAA[αMeK]E[Nle]IAK([PEG2′-PEG2′-γGlu-Lauroyl])VVEGG-NH2
B5: SEQ ID NO: 408 (peptide)
peptide: H[Aib]EGS[αMeF]TSDV[αMeS]SK([PEG2′-PEG2′-γGlu-Myristoyl])LEGEAA[αMeK]E[αMeF]IAK([PEG2′-PEG2′-γGlu-Myristoyl])VVEGG-NH2

biological target: GLP-1 receptor (GLP-1R), primary cAMP assay (human, UniProt P43220 24-463); experiment: cell-based or functional assay

| Binder | Primary assay EC50 (cAMP) Mean | Primary assay EC50 (cAMP), n1 | Primary assay EC50 (cAMP), n2 |
| --- | --- | --- | --- |
| B1 | 0.187 nM | 0.248 nM | 0.126 nM |
| B2 | 0.0039 nM | 0.00405 nM | 0.00366 nM |
| B3 | 0.0046 nM | 0.00401 nM | 0.00524 nM |
| B4 | 0.002 nM | 0.00196 nM | 0.00201 nM |
| B5 | 0.0089 nM | 0.00996 nM | 0.00789 nM |

biological target: glucagon receptor (GCGR), primary cAMP assay (human, UniProt P47871 26-477); experiment: cell-based or functional assay
Sequence (P47871 26-477): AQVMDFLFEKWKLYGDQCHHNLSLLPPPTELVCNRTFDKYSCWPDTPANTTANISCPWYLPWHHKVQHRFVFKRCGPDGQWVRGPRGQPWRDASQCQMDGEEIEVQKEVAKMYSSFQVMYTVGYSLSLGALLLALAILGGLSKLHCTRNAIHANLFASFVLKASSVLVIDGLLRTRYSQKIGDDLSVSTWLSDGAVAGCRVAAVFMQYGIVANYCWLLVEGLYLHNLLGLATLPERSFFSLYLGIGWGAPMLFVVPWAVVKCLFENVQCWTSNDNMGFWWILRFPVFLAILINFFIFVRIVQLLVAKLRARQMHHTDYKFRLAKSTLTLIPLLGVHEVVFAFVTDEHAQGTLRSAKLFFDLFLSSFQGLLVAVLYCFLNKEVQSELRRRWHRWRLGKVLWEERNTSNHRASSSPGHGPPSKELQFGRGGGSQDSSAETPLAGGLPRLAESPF

| Binder | Primary assay EC50 (cAMP), n1 | Primary assay EC50 (cAMP), n2 |
| --- | --- | --- |
| B1 | 21.5 nM | 21.5 nM |
| B2 | 21.5 nM | 21.5 nM |
| B3 | 22.8 nM | 22.8 nM |
| B4 | 21.5 nM | 21.5 nM |
| B5 | 21.5 nM | 21.5 nM |

biological target: T1, glucose-dependent insulinotropic …; experiment: cell-based or functional assay

| Binder | Primary assay EC50 (cAMP), n1 | Primary assay EC50 (cAMP), n2 |
| --- | --- | --- |
| B1 | 21.5 nM | 21.5 nM |
| B2 | 21.5 nM | 21.5 nM |
| B3 | 22.8 nM | 22.8 nM |
| B4 | 21.5 nM | 21.5 nM |
| B5 | 21.5 nM | 21.5 nM |

biological target: T2, GLP-1R in the INS1e assay; experiment: cell-based or functional assay

| Binder | INS1e assay EC50 (cAMP) Mean | INS1e assay EC50 (cAMP) n1 | INS1e assay EC50 (cAMP) n2 |
| --- | --- | --- | --- |
| B1 | 0.78 nM | 0.698 nM | 0.862 nM |
| B2 | 0.116 nM | 0.11 nM | 0.121 nM |
| B3 | 0.212 nM | 0.243 nM | 0.181 nM |
| B4 | 0.104 nM | 0.113 nM | 0.0952 nM |
| B5 | 0.412 nM | 0.376 nM | 0.448 nM |

From US20200079833A1 (AstraZeneca / MedImmune, published 2020)
